This note sets out measurements from patent US20090005257A1 (published 2009).

Numbering of substitutions follows the chain as printed. In names and notes the source's numbering stands.

Experiment [1] addresses T1, human serum albumin (human, UniProt P02768 25-609).
T1 construct: also called HSA
Briefly: phage ELISA on HSA, heated 80 C 10 min against unheated.
Experimental: (§1) A phage ELISA was performed according to the protocol of Section 5 with the following modifications. 1×10¹⁰ phage were either heat-treated (10 minutes at 80° C. in 100 μL aliquots) or left untreated. The samples were centrifuged for 10 minutes at 14,000 rpm at 4° C. and the supernatants were added to ELISA wells coated with HSA (with a dilution series of ⅓). After developing the ELISA, the OD450 nm values (y-axis) for each heat treated/unheated phage pair were plotted against the phage number α-axis) and the %-refoldability was calculated.

The target in experiment [2] is T1, human serum albumin. Briefly: phage ELISA on HSA, purified phage, 1/3 dilution series. For orientation: An ELISA detects its analyte on a solid surface through an enzyme-linked reagent.
Experimental: as §1
Experiment [3] addresses T1, human serum albumin. The experiment is described as follows: phage ELISA on HSA, heated against unheated.
Experimental: The ELISA wells were coated overnight at 4° C. with one of the following ligands: 10 μg/ml of protein A in PBS, 10 μg/ml of mAb 9E10 in PBS, or 3 mg/ml of HEL in 0.1 M NaHCO₃ buffer, pH 9.6. After blocking the wells with PBS containing 2% Tween-20 (PBST), a dilution series of phage in PBST was incubated for 2 h. After washing with PBS, bound phage were detected as follows. In assays for binding to REL, phage was detected directly using a conjugate of horseradish peroxidase with an anti-M13 monoclonal antibody (Amersham) using 3,3′,5,5′-tetramethylbenzidine as substrate. In assays for binding to protein A, the phage (4×10¹⁰ TU/ml in PBS) was first biotinylated at 4° C. with biotin-NHS (Perbio) (50 μM final concentration) and detected by sequential addition of streptavidin-horseradish peroxidase conjugate (1 μg/ml) (Sigma-Aldrich) in PBST, and substrate as above. In assays for binding to human serum albumin (USA) (Sigma, coating at 10 μg/ml in PBS), the ELISA was performed in PBS supplemented with 2% skim-milk powder (PBSM) and bound phage were detected in two steps using a rabbit anti-fd bacteriophage monoclonal antibody (Sigma, 1/1000 dilution) and goat anti-rabbit IgG serum conjugated with horseradish peroxidase (Sigma, 1/1000 dilution) and substrate as above.
The target in experiment [4] is T2, human Tumor Necrosis Factor Receptor 1 (TNFR1) expressed on HeLa cells (human, UniProt P19438 30-455).
T2 sequence (looked up): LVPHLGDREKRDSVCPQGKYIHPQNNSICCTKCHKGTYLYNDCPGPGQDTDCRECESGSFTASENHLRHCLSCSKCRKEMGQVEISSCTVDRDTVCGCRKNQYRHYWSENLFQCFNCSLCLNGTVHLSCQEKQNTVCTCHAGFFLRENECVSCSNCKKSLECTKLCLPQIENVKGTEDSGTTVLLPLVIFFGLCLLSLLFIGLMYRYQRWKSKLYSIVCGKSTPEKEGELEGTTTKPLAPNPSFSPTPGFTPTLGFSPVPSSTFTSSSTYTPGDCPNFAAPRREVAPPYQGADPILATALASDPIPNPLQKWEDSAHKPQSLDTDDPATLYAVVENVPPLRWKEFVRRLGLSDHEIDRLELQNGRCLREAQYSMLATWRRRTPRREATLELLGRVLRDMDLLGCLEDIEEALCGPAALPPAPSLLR
The experiment is described as follows: cell-based or functional assay.

In experiment [5] the target is T3, TNF receptor 1 Fc fusion protein (human, UniProt P19438 30-211).
T3 construct: Bought; also called recombinant TNF receptor 1 (p55); human Tumor Necrosis Factor Receptor 1; not shown: Fc part of the bought fusion protein (captured by an anti-human Fc antibody)
T3 sequence (looked up): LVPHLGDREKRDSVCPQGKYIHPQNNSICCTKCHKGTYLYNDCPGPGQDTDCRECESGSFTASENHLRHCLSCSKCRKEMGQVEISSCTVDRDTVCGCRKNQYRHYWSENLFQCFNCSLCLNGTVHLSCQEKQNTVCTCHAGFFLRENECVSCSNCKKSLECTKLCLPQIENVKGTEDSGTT
Briefly: receptor binding ELISA: dAb mixed with TNF (10 ng/ml) and added to TNFR1-Fc captured by anti-human Fc; bound TNF detected with biotinylated anti-TNF antibody; blocked ligand TNF.

Experiment [6] addresses T4, TNF-α (UniProt P01375 77-233).
T4 construct: also called tumour necrosis factor
Briefly: RBA-ELISA: dAb competes with binding of soluble TNF-α to immobilised TNF-α receptor.

Experiment [7] addresses T4, TNF-α. Briefly: phage ELISA on TNF-α coated wells, heated 80 C 10 min against unheated.
Experiment [8] deals with T4, TNF-α. Briefly: RBA-ELISA.
In experiment [9] the target is T5, protein A (UniProt P38507 37-477).
T5 construct: also called pA
The experiment is described as follows: phage ELISA on protein A, heated 80 C against unheated, three data points.
Experimental: (§2) After biotinylation of the phage, for each clone, a 100 μl sample of phage was transferred to a thin-wall PCR tube (and the remaining biotinylated phage was kept on ice). The tube was placed in a PCR apparatus for incubation at 80° C. during 10 min (temperature of cover lid: 85° C.). After heating, the tube was rapidly cooled down to 4° C. in the PCR apparatus.
(§3) ELISA plates were coated and blocked as described in Section 4. The samples were transferred to the empty wells of coated/blocked ELISA plates, and incubated for 2 hours at room temperature. Unbound phage was then removed by washing the wells 6-ties with PBS. For detection, Str-HRP (from a 1 mg/ml stock in PBS) were diluted 1/2000 in PBS supplemented with 2% v/v TWEEN 20 (Polyoxyethylensorbitan monolaurate; for protein A-based ELISA) or 2% w/v BSA (for protein L-based ELISA), and 100 μl of the resulting solution was added to each ELISA well. After incubation for 1 hour at room temperature, the unbound conjugate was removed by washing the wells 6-times with PBS. For colorimetric reaction, a 10 mg/ml solution of TMB (tetramethylbenzidine) was diluted 100-fold in a buffer of 0.1 M sodium acetate, pH 6.0. Next, hydrogen peroxyde was added (0.4 ul per ml of buffer/TMB, and 100 ul of this solution was added to each ELISA well. After color (blue) developed, the reaction was stopped by adding 50 μl of 1 M sulfuric acid per well (color turns to yellow). The optical density was recorded at 450 nm.
These clones were characterized for refoldability on phage (according to the protocol of Section 5, but with three data points being taken) and in solution.

Experiment [10] has as its target T5, protein A. Briefly: phage ELISA on protein A, multivalent phage 5x10^11 TU/ml, 80 C 10 min against untreated.
Experimental: The ELISA wells were coated overnight at 4° C. with one of the following ligands: 10 μg/ml of protein A in PBS, 10 μg/ml of mAb 9E10 in PBS, or 3 mg/ml of HEL in 0.1 M NaHCO₃ buffer, pH 9.6. After blocking the wells with PBS containing 2% Tween-20 (PBST), a dilution series of phage in PBST was incubated for 2 h. After washing with PBS, bound phage were detected as follows. […] In assays for binding to protein A, the phage (4×10¹⁰ TU/ml in PBS) was first biotinylated at 4° C. with biotin-NHS (Perbio) (50 μM final concentration) and detected by sequential addition of streptavidin-horseradish peroxidase conjugate (1 μg/ml) (Sigma-Aldrich) in PBST, and substrate as above.
A further experiment addresses T6, hen egg lysozyme (hen, UniProt P00698 19-147).
T6 construct: also called HEL; hen egg white lysozyme
Briefly: phage ELISA on immobilised HEL.

The target of experiment [11] is T5, protein A. The experiment is described as follows: phage ELISA on protein A, heated 80 C against unheated, titration (Section 5).
Experimental: as §2, §3

T1 sequence (P02768 25-609 limits assumed): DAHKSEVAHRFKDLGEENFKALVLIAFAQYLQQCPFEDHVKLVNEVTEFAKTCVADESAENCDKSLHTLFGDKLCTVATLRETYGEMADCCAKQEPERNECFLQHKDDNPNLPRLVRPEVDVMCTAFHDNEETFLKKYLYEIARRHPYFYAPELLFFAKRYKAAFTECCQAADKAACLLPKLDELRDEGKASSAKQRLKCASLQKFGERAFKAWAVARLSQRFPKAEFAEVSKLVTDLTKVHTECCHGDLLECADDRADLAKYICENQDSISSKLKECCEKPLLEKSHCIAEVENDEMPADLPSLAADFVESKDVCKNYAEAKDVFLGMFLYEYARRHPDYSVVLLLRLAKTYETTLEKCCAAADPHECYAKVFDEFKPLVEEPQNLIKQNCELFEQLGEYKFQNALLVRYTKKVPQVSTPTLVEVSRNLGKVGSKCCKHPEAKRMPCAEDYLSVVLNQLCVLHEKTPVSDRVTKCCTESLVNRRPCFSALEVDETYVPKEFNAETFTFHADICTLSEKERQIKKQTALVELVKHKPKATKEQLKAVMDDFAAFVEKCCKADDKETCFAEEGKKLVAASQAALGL
T4 sequence (P01375 77-233 limits assumed): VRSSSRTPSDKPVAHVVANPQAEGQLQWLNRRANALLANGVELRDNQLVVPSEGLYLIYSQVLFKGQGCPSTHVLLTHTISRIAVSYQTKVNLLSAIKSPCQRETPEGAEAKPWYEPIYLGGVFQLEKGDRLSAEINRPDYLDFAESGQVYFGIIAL
T6 sequence (P00698 19-147): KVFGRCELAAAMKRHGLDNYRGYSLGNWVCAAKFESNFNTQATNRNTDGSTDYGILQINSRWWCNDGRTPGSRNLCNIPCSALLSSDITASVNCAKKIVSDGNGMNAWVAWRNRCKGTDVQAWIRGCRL
Experimental for hen egg lysozyme: Phage ELISA assays. The ELISA wells were coated overnight at 4° C. with one of the following ligands: 10 μg/ml of protein A in PBS, 10 μg/ml of mAb 9E10 in PBS, or 3 mg/ml of HEL in 0.1 M NaHCO₃ buffer, pH 9.6. After blocking the wells with PBS containing 2% Tween-20 (PBST), a dilution series of phage in PBST was incubated for 2 h. After washing with PBS, bound phage were detected as follows. In assays for binding to REL, phage was detected directly using a conjugate of horseradish peroxidase with an anti-M13 monoclonal antibody (Amersham) using 3,3′,5,5′-tetramethylbenzidine as substrate.

B1: anti-HSA VH clone #1 (other)
VH: EVQLLESGGGLVQPGGSLRLSCAASGFTFDLYDMSWVRQAPGKGLEWVSSIVNSGVRTYYADSVKGRFTISRDNSKNTLYLQMNSLRAEDTAVYYCAKLNQSYHWDFDYWGQGTLVTVSS
notes: From library 4G (human VH3, DP47 germline gene + JH4 segment)
As to B1, the “Refoldability (HSA binding retained after heating)” value with human serum albumin [1] turned out to be 1.5%. In addition, in the experiment with human serum albumin [2], the “phage number, +Heat” value turned out to be 1e+10 phage and the “phage number, -Heat” value came to 1.5e+08 phage. Also, the “% HSA binding signal retained after heating” value (“% HSA binding signal retained” below) in the experiment with human serum albumin [3] was less than 10%.

B2: anti-HSA VH clone #3 (other)
VH: EVQLLESGGGLVQPGGSLRLSCAASGFTFSKYWMSWVRQAPGKGLEWVSSIDFMGPHTYYADSVKGRFTISRDNSKNTLYLQMNSLRAEDTAVYYCAKGRTSMLPMKGKFDYWGQGTLVTVSS
notes: As clone #1
Consider B2, for which the “Refoldability (HSA binding retained after heating)” value in the experiment with human serum albumin [1] amounted to 0.55%. Moreover, in the experiment with human serum albumin [2], the “phage number, +Heat” value was determined as 1e+10 phage and the “phage number, -Heat” value amounted to 5.5e+07 phage. Further, the “% HSA binding signal retained” value with human serum albumin [3] is less than 10%.

B3: TAR2-10-27 (other)
VH: EVQLLESGGGLVQPGGSLRLSCAASGFTFEWYWMGWVRQAPGKGLEWVSAISGSGGSTYYADSVKGRFTISRDNSKNTLYLQMNSLRAEDAAVYYCAKVKLGGGPNFGYRGQGTLVTVSS
notes: Human VH3 single domain (dAb) against human TNFR1, tested as soluble protein purified on protein A beads
In the case of B3, in experiment [4], the “IC50 (read off the curve), inhibition of TNF-induced IL-8 secretion of HeLa cells” value is roughly 10 nM. Moreover, the “IC50 (read off the curve)” value in experiment [5] is roughly 5 nM.

B4: TAR2-10-27-Y32D (other)
VH: B3 VH with Y32D
As to B4, the “IC50 (read off the curve), inhibition of TNF-induced IL-8 secretion of HeLa cells” value in experiment [4] is roughly 5 nM.

B5: TAR2-10-27-F27D (other)
VH: B3 VH with F27D
notes: Soluble dAb
B5: the “IC50 (read off the curve)” value in experiment [5] was roughly 6 nM.

B6: anti-HSA VH clone #6 (other)
VH: EVQLLESGGGLVQPGGSLRLSCAASGFTFHRYSMSWVRQAPGKGLEWVSTILPGGDVTYYADSVKGRFTISRDNSKNTLYLQMNSLRAEDTAVYYCAKQTPDYMFDYWGQGTLVTVSS
notes: As clone #1
As for B6, the “Refoldability (HSA binding retained after heating)” value in the experiment with human serum albumin [1] was less than 0.2%. Moreover, in the experiment with human serum albumin [2], the “phage number, +Heat” value turned out to be 9.75e+09 phage and the “phage number, -Heat” value is 2.1e+07 phage. For the same molecule, in the experiment with human serum albumin [3], the “% HSA binding signal retained” value is less than 10%.

B7: anti-HSA VH clone #10 (other)
VH: B6 VH with H30D, R31E, S33N, G54H, V57R, T100D, D102L, M104R
notes: As clone #1; the one clone recovered with the heat step
For the molecule B7, the “Refoldability (HSA binding retained after heating)” value with human serum albumin [1] was roughly 100%. For the same molecule, in the experiment with human serum albumin [2], the “phage number, +Heat” value was 1e+10 phage and the “phage number, -Heat” value amounted to 1e+10 phage.

B8: anti-HSA VH clone #4 (other)
VH: B6 VH with H30Y, R31D, S33N, L52T, P53H, G54T, D56G, T100N, D102S, M104Q
notes: As clone #1
Regarding B8, in the experiment with human serum albumin [1], the “Refoldability (HSA binding retained after heating)” value came out at 9.1%. Further, in the experiment with human serum albumin [2], the “phage number, +Heat” value was 1e+10 phage and the “phage number, -Heat” value worked out at 5.7e+08 phage. In addition, in the experiment with human serum albumin [3], the “% HSA binding signal retained” value was less than 10%.

B9: anti-HSA VH clone #2 (other)
VH: EVQLLESGGGLVQPGGSLRLSCAASGFTFSDYRMSWVRQAPGKGLEWVSTIISNGKFTYYADSVKGRFTISRDNSKNTLYLQMNSLRAEDTAVYYCAKQDWMYMFDYWGQGTLVTVSS
notes: As clone #1
As to B9, in the experiment with human serum albumin [2], the “phage number, +Heat” value is 1e+10 phage and the “phage number, -Heat” value came out at 1.3e+09 phage. Further, the “% HSA binding signal retained” value with human serum albumin [3] is less than 10%.

B10: TAR1-5-19 (other)
VL: DIQMTQSPSSLSASVGDRVTITCRASQSIDSYLHWYQQKPGKAPKLLIYSASELQSGVPSRFSGSGSGTDFTLTISSLQPEDFATYYCQQVVWRPFTFGQGTKVEIKR
notes: Vκ1 single domain (dAb) specific for TNF-α; also called PEP1-5-19
A word on the IC50: it is the midpoint of a concentration-inhibition curve. Read a low IC50 as higher potency. Molecule B10 returned an IC50 with TNF-α [6] of 30 nM. For the same molecule, the “% refolding (TNF-α binding retained after heating)” value in the experiment with TNF-α [7] was 80%.

B11: TAR1-5-19-Y49N (other)
VL: B10 VL with Y49N
On to B11, for which the “fold reduction of binding against TAR1-5-19” value in the experiment with TNF-α [8] was 6 to 20 fold. The IC50 with TNF-α [6] is 900 nM. In addition, the “% refolding (TNF-α binding retained after heating)” value with TNF-α [7] was 98%.

B12: TAR1-5-19-Y49D (other)
VL: B10 VL with Y49D
On to B12, for which the “fold reduction of binding against TAR1-5-19” value in the experiment with TNF-α [8] is 6 to 20 fold. In addition, in the experiment with TNF-α [6], the IC50 is 200 nM. For the same molecule, in the experiment with TNF-α [7], the “% refolding (TNF-α binding retained after heating)” value is 93%.

B13: HEL4 (other)
VH: EVQLLESGGGLVQPGGSLRLSCAASGFRISDEDMGWVRQAPGKGLEWVSSIYGPSGSTYYADSVKGRFTISRDNSKNTLYLQMNSLRAEDTAVYYCASALEPLSEPLGFWGQGTLVTVSS
notes: Human VH dAb against hen egg lysozyme; also called dAb HEL4; Fd-myc-HEL4
In the case of B13, the “Refoldability on phage (protein A binding retained after heating)” value with protein A [9] came to 82%. Further, the “fold reduction of binding after heating” value with protein A [10] was found to be 3 fold. Further, the binding result with hen egg lysozyme is listed as “binds”. Besides, the “% refolding (protein A binding retained after heating)” value in the experiment with protein A [11] came out at 18.5%.
